According to US20190112365A1 (EISAI R AND D MANAGEMENT, published 2019):

How the values were obtained:
[1] = target: T1, Human Tau 2N4R, wild type, recombinant full length (human, UniProt P10636 2-758); assay: SPR BIAcore, mAb captured by anti-mouse IgG, Tau flowed, 1:1 Langmuir
T1 construct: Full length 2N4R isoform; monomer in SPR and ELISA; heparin-induced aggregates or seeds in the functional assays; also called Tau441; Tau-441
Experimental: All experiments were performed using a BIAcore™ T-100 instrument (GE Healthcare). 10 μL anti-human IgG (monoclonal mouse anti-human Fc) from human antibody capture kit (GE Healthcare) was diluted to 25 μL/mL in 200 μL final immobilization buffer (10 mM sodium acetate, pH 5.0). The flow rate was set to 5 μL/min, flowpath 1. Fifty μL N-hydroxysuccinamide (NETS) and 50 μL 1-ethyl-3-(3-dimethylaminopropyl) carbidiimide (EDC) were mixed and injected for 420 sec to activate the CM5 chip surface. The diluted antibody was injected for 360 seconds followed by 1 M ethanolamine for 420 seconds. The flowpath was then switched to flowpath 2. A new EDC/NHS mixture was prepared and the procedure was repeated for flow cell 2. The surface was conditioned by 2 injections of 30 sec using flowpath 1, 2 at 30 μL/min of 3M MgCl₂. For the anti-mouse surface, 10 μL anti-mouse IgG (polyclonal rabbit anti-mouse IgG) from mouse antibody capture kit (GE Healthcare) was diluted to 30 μL/mL in 324 μL final immobilization buffer (10 mM sodium acetate, pH 5.0). The flow rate was set to 5 μL/min, flowpath 3. Fifty μL NHS and 50 μL EDC were mixed and injected for 420 sec to activate the chip surface. The diluted antibody was injected for 420 sec. 1 M ethanolamine was injected for 420 sec. Flow path was switched to flowpath 4. A new EDC/NHS mixture was prepared and the procedure was repeated for flow cell 4. The surface was conditioned by 2 injections of 30 sec using flowpath 3, 4 at 30 μL/min of 10 mM glycine, pH 1.7.
Binding of humanized and mouse antibodies were analyzed by BIAcore™ to determine their relative association rates (ka), dissociation rates (kd), and equilibrium binding constants (KD). Anti-mouse or anti-human antibodies were immobilized on a CM5 chip and sample mAbs were captured on the chip. 2N4R Tau was flowed over the chip and binding observed. The binding constants kₐ, kd, and KD were determined using a 1:1 Langmuir fitting model. Both 7G6-HCzu12-based mAbs had similar kₐ and kd values (Table 8). However, the kₐ of 7G6-HCzu11 was decreased, though the kd was unaffected. Therefore, human residues in the Vh3 framework impact binding to Tau.

[2] = target: T2, P301S mutant human 2N4R Tau, recombinant full length (human, UniProt P10636 2-758); assay: SPR; KD on P301S-2N4R Tau against KD on wild type 2N4R Tau
T2 construct: The equivalent P301S mutant of 2N4R Tau; also called P301S-2N4R Tau; P301S Tau
Experimental: (§1) Purified antibodies from hybridomas were captured by protein A/G immobilized on a CM5 sensor chip (GE Healthcare). The wild type and P301S Tau proteins were then injected onto the sensor chip at five different concentrations and the affinity (equilibrium dissociation constant, KD) was calculated according to the manufacturer's instruction.

[3] = target: T1, Human Tau 2N4R, wild type, recombinant …; assay: SPR BIAcore T100, mAb captured by protein A/G, Tau injected
Experimental: (§2) Kinetic analysis of the interaction of the anti-Tau mouse monoclonal antibodies generated in Example 1 with human wild type Tau (2N4R) and the equivalent P301S mutant Tau protein was conducted using a BIAcore™ T100 instrument. Recombinant human full length Tau proteins were expressed in E. coli and then purified by Cellufine™ phosphate affinity chromatography followed by ammonium sulfate precipitation and reverse phase HPLC chromatography.
as §1

[4] = target: T2, P301S mutant human 2N4R Tau, …; assay: as above
Experimental: as §2, §1

[5] = target: T3, HVPGG site of Tau (15-mer array peptides containing HVPGG) (human); assay: peptide microarray; HVPGG site of the fourth repeat region against HQPGG (repeat region 1)
T3 peptide: HVPGG
Experimental: (§3) The diluted antibody was incubated on the chip for 16 hours at 4° C. with shaking at 140 rpm. Primary antibody was removed and the chip was washed in PBS (pH 7.4)/0.05% Tween 20. Wash buffer was removed and goat anti-mouse IgG (H+L) DyLight™680 (1:5000) and an anti-HA tag DyLight™ 800 (1:2000) in the same buffer as the primary antibody was then incubated for 45 minutes at room temperature on the chip. Detection antibody was removed and the chip was washed once again as previously. Fluorescence images were acquired on the LI-COR Odyssey™ Imaging System and the microarray data was finally analyzed using the PepSlide™ Analyser software.

[6] = target: T3, HVPGG site of Tau (15-mer array …); assay: peptide microarray; HVPGG site of the second repeat region against HQPGG (repeat region 1)
Experimental: as §3

[7] = target: T3, HVPGG site of Tau (15-mer array …); assay: peptide microarray; HVPGG site of the fourth repeat region against HKPGG (repeat region 3)
Experimental: as §3

T1 sequence (P10636 other isoform, or with tags, fused parts or gaps limits assumed): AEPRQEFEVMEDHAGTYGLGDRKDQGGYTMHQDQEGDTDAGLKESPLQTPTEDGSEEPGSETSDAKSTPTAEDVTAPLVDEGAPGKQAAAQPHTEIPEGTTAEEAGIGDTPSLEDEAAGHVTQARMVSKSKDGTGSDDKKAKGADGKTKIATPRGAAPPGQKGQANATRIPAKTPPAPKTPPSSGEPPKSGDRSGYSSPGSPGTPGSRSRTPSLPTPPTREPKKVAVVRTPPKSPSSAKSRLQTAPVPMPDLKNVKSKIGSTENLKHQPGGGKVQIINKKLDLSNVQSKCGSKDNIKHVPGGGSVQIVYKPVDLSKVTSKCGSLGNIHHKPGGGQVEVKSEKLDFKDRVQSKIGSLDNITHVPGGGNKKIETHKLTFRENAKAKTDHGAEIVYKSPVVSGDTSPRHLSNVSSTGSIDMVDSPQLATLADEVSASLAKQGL
T2 sequence (P10636 other isoform, or with tags, fused parts or gaps P301S P301S limits assumed): as the sequence (P10636 other isoform, or with tags, fused parts or gaps limits assumed) above, with P300S counted along it

B1: murine 7G6 antibody (antibody, mouse IgG2b, V domains shown)
VH: QVQLLQPGAELVKPGASVIMSCKASGYTFTTYWITWVKQRPGQGLEWIGDIYPGSSICNYNEKFKSKATLTVDTSSSTAYMQLNSLTSEDSAVYYCAREDGYDAWFAYWGQGTLVTVSA
VL: DVLMTQTPLSLPVSLGDQASISCRSSQSILHSNGNTYLEWYLQKPGQSPKLLICKVSNRFSGVPDRFSGSGSGTDFTLKISRVEAEDLGVYYCFQGSHVPFTFGSGTKLEIK
notes: Mouse IgG2b, kappa, purified from hybridoma; also called ms7G6; mouse 7G6
- Kd [1]: 3.31 nM
- koff [1]: 0.00153 s⁻¹
- kon [1]: 464000 M⁻¹ s⁻¹
- Fold difference [2]: 11 fold
- Kd [3]: 0.052 nM
- Kd [4]: 0.57 nM
- fold preference in binding (average signal intensities) [5]: 35 fold
- fold preference in binding (average signal intensities) [6]: 41 fold
- fold preference in binding (average signal intensities) [7]: 33 fold
